Assays:
SA2 (STAG2), full length [1] = target: T1, SA2 (STAG2), full length (human, UniProt Q8N3U4 1-1231); assay: fluorescence anisotropy; no detectable binding (ND); Anisotropy: 20 mM Hepes pH 7.5, 0.1 mM MgCl2, 0.5 mM DTT, 100 mM KCl, 1 nM DNA; AFM: 20 mM Hepes pH 7.5, 100 mM KCl, 0.1 mM MgCl2, room temperature, 20 min; conditions: protein: recombinant; tags: 6xHis; label: 5' Alexa 488 on strand 1; blunt
T1 sequence: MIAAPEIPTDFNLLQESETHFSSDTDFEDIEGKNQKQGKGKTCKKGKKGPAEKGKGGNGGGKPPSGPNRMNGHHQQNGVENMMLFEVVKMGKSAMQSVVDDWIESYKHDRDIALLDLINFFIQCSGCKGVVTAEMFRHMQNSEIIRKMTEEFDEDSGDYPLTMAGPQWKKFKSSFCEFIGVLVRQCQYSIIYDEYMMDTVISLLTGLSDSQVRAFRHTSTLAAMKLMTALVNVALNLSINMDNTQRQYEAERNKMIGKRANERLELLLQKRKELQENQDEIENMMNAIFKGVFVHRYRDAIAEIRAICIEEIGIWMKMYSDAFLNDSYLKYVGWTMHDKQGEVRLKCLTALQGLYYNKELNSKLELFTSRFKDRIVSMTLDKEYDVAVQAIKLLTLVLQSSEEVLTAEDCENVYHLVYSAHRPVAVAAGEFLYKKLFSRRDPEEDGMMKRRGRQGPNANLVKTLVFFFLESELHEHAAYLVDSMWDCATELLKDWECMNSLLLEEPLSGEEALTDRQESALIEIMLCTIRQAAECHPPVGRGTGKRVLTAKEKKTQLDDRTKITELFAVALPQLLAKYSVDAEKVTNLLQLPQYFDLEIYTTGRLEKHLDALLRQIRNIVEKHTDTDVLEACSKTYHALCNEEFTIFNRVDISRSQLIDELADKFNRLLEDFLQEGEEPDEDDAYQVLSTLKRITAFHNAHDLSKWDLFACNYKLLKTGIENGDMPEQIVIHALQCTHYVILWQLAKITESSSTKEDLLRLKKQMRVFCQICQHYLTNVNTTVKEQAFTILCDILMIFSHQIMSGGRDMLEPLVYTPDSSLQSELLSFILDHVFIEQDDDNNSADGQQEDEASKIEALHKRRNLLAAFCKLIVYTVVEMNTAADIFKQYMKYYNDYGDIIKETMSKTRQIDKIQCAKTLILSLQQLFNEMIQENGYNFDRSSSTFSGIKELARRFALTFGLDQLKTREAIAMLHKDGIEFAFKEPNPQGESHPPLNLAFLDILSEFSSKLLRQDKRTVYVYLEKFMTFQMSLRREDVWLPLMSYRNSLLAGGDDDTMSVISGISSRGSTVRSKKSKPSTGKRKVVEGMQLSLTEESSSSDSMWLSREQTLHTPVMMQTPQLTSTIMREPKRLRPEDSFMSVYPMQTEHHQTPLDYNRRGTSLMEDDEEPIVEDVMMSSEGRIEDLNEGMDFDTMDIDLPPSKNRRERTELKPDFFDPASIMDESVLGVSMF

SA2 1-1051 = target: T2, SA2 1-1051 (human, UniProt Q8N3U4 1-1051); assay: fluorescence anisotropy; Anisotropy: 20 mM Hepes pH 7.5, 0.1 mM MgCl2, 0.5 mM DTT, 100 mM KCl, 1 nM DNA; AFM: 20 mM Hepes pH 7.5, 100 mM KCl, 0.1 mM MgCl2, room temperature, 20 min; conditions: protein: recombinant; tags: 6xHis; label: Alexa 488
T2 sequence: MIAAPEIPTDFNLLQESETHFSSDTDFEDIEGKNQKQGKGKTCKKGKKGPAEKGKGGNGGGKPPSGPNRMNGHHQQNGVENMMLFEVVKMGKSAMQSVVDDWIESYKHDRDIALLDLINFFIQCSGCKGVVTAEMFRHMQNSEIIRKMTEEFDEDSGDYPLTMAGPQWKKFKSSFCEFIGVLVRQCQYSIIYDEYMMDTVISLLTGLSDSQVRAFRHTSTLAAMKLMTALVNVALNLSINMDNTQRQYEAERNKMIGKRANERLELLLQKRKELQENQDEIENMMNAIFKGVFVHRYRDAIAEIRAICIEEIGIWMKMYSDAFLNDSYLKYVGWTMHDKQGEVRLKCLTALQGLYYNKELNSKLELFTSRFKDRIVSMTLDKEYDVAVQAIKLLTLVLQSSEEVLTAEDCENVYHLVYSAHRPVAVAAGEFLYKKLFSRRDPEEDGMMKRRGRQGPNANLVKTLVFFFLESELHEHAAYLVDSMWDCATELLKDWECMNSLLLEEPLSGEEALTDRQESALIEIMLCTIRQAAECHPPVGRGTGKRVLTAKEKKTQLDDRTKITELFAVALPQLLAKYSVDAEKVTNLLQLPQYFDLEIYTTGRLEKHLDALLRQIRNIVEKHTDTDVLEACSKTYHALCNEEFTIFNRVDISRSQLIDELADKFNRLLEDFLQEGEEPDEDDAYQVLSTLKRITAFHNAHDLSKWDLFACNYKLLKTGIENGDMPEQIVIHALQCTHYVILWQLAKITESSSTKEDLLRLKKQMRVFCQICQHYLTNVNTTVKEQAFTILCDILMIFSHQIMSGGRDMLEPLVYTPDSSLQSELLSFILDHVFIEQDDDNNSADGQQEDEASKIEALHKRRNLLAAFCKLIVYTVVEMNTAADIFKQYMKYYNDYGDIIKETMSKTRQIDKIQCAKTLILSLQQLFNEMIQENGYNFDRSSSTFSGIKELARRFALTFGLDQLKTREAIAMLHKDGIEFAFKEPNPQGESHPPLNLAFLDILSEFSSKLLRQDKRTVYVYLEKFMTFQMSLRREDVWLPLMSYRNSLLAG

SA1 (STAG1), full length = target: T3, SA1 (STAG1), full length (UniProt Q8WVM7 1-1258); assay: as above; conditions: protein: recombinant; label: Alexa 488
T3 sequence: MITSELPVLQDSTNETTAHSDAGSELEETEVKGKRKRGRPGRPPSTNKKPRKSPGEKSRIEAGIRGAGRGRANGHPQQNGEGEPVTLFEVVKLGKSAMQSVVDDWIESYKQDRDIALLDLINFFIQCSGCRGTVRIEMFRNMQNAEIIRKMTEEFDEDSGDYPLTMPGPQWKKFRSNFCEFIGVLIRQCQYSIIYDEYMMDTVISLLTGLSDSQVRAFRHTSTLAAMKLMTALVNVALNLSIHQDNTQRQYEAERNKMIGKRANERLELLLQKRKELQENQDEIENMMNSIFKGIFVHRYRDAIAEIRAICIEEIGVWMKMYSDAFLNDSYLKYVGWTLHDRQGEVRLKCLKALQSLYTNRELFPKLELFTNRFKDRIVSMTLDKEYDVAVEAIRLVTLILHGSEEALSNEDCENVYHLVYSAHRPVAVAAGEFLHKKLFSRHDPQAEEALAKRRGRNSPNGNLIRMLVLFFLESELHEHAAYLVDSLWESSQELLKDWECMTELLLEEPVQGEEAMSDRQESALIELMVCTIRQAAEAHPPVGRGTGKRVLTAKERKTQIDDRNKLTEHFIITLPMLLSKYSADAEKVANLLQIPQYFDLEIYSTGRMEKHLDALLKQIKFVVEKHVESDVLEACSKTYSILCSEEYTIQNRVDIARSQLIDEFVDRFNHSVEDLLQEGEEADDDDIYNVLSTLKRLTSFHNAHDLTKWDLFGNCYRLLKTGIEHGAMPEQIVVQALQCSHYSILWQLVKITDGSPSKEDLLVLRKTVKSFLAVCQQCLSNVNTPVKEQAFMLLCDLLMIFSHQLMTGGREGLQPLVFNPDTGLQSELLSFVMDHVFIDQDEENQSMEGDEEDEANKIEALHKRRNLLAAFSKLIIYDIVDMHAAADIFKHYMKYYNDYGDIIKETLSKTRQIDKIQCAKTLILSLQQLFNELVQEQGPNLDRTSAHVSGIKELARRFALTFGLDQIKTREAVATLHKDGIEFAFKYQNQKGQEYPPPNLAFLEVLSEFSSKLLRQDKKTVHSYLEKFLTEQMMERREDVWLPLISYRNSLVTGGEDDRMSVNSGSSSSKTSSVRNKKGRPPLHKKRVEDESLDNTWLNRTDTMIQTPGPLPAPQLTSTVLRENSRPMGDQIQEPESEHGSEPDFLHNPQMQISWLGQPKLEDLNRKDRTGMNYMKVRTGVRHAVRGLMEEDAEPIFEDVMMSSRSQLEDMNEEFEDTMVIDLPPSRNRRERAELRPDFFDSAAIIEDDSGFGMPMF

SA2 (STAG2), full length [2] = target: T1, SA2 (STAG2), full length; assay: as above; conditions: protein: recombinant; tags: 6xHis; label: Alexa 488

B1: ds25 (Alexa ss25 + ss-25-com) (dsDNA)
DNA 1: TGTCGCATAGTGTAGTCGGTCTTGT
DNA 2: ACAAGACCGACTACACTATGCGACA
binding result (SA2 (STAG2), full length [1]): no binding

B2: ss66 (Alexa ss66) (ssDNA)
DNA: CTGGATCCGTACAGTGTAAGGGTGAGTGGTTGGGTGTGTGGGTGTTGATGTAGAACAAGAATTCGA
Kd (SA2 1-1051): 28 nM | Kd (SA1 (STAG1), full length): 36.5 ± 0.2 nM | Kd (SA2 (STAG2), full length [2]): 41 ± 5.3 nM
